The data set concerns the molecule itself. Kind of data set: cryo-EM structure.

B1: Transmembrane protein 175 (TMEM175), human (natural protein)
chain: MSQPRTPEQALDTPGDCPPGRRDEDAGEGIQCSQRMLSFSDALLSIIATVMILPVTHTEISPEQQFDRSVQRLLATRIAVYLMTFLIVTVAWAAHTRLFQVVGKTDDTLALLNLACMMTITFLPYTFSLMVTFPDVPLGIFLFCVCVIAIGVVQALIVGYAFHFPHLLSPQIQRSAHRALYRRHVLGIVLQGPALCFAAAIFSLFFVPLSYLLMVTVILLPYVSKVTGWCRDRLLGHREPSAHPVEVFSFDLHEPLSKERVEAFSDGVYAIVATLLILDICEDNVPDPKDVKERFSGSLVAALSATGPRFLAYFGSFATVGLLWFAHHSLFLHVRKATRAMGLLNTLSLAFVGGLPLAYQQTSAFARQPRDELERVRVSCTIIFLASIFQLAMWTTALLHQAETLQPSVWFGGREHVLMFAKLALYPCASLLAFASTCLLSRFSVGIFHLMQIAVPCAFLLLRLLVGLALATLRVLRGLARPEHPPPAPTGQDDPQSQLLPAPC
Turning to B1, the binding result is “binds”.

For the origin of these results see PMC9636928 (Proceedings of the National Academy of Sciences of the …, 2022).
